In article PMC10403730, “PABPN1 aggregation is driven by Ala expansion and poly(A)-RNA binding, leading to CFIm25 sequestration that impairs alternative polyadenylation”:

Target: T1, EGFP-PABPN1-10A-ΔCT (Homo sapiens, UniProt Q86U42 1-254)
T1 sequence: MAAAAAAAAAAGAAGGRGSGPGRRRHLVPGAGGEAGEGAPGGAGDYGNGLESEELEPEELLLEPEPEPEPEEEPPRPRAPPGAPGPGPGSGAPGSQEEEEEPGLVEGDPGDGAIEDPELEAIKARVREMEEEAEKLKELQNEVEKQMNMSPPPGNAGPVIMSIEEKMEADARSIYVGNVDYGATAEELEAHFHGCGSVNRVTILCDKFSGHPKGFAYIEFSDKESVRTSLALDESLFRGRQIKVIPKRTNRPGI
Assay: EMSA; 2 nM dA50, 0-5 uM protein; 50 mM Tris-HCl, 150 mM NaCl, 2 mM MgCl2, pH 7.5, 30 min at room temperature; 6% native gel
Details: protein: recombinant; tags: N-terminal EGFP, C-terminal His; label: 5'-Cy5; single-stranded

AAAAAAAAAAAAAAAAAAAAAAAAAAAAAAAAAAAAAAAAAAAAAAAAAA (ssDNA) [Cy5-dA50]
binding result: binds
